Data: patent US20050209147A1 (Stanford University, published 2005)

Biological target: Rho-kinase (ROCK), endogenous in Swiss 3T3 mouse fibroblasts (mouse)
Test: cell-based or functional assay

Binder	dose at which inhibition of LPA-induced stress fibers becomes significant [µM]
RQIKIWFQNRRMKWKKGPDTDVILMCFSIDSPDSL [P1-RhoA 75-92 fusion domain (Penetratin-1 fused through a glycine to human RhoA amino acids 75-92)]	10
RQIKIWFQNRRMKWKKGIVFSKDQFPEVYVPTVFE [P1-RhoA 23-40 fusion domain (Penetratin-1 fused through a glycine to human RhoA amino acids 23-40)]	10
